In the supplement of paper PMC12783771:
± gives the standard deviation of the averaged measurements.

B1: library; numbered along this chain (parent)
chain: MNIQIGELAKRTACPVVTIRFYEQEGLLPPPGRSRGNFRLYGEEHVERLQFIRHCRSLDMPLSDVRTLLSYRKRPDQDCGEVNMLLDEHIRQVESRIGALLELKHHLVELREACSGARPAQSCGILQGLSDCVCDTRGTTAHPSD

Tests used:
[1] = variants of: B1; assay: sfGFP reporter fluorescence (15 h) (µM FITC); higher = higher leak; settings: library round: Round 0; ligand: none
Summary of the method: (§1)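 An Echo normalized PCR-made linear PbrR templates to 5 nM and assembled 1 μL reactions in BL21 Star (DE3) PANOx-SP extract carrying the pPbrR-sfGFP reporter plasmid and 30 μg/mL GamS. Reactions received 1 µM lead chloride, 30 µM zinc acetate or no metal and stood 15 hr at 30 °C. Fluorescence at 485/528 nm (Synergy Neo2) was converted with FITC standard curves made in 50 mM sodium borate pH 8.5. Endpoint sfGFP signal is given in µM FITC, from up to three biological replicates.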

[2] = variants of: B1; assay: sfGFP reporter fluorescence (15 h) (µM FITC); higher = stronger transcriptional activation; settings: library round: Round 0
Summary of the method: as §1

Row | Variant | sfGFP reporter fluorescence [1] | sfGFP reporter fluorescence ([2]; ligand: 1 µM Pb) | sfGFP reporter fluorescence ([2]; ligand: 30 µM Zn)
1 | F21V | 0.0625 ± 0.00078 | 0.0608 | 0.0669 ± 0.00078
2 | L62Q | 0.0597 ± 0.001 | 0.0608 ± 0.001 | 0.0819 ± 0.0018
3 | L62I | 0.05992 ± 0.00026 | 0.0883 ± 0.0062 | 0.88 ± 0.14
4 | L62E | 0.06066 ± 0.00026 | 0.0625 ± 0.0023 | 0.0658 ± 0.0013
5 | C79R | 0.06011 ± 0.00052 | 0.0629 ± 0.0018 | 0.059 ± 0.001
6 | C79I | 0.0557 ± 0.0015 | 0.05351 ± 0.00052 | 0.05387 ± 0.00052
7 | C79A | 0.05827 ± 0.00052 | 0.055 ± 0.0021 | 0.0585 ± 0.00078
8 | H89D | 0.0623 ± 0.0021 | 0.0669 ± 0.0044 | 0.08283 ± 0.00052
9 | P15N | 0.0629 ± 0.0034 | 0.0859 ± 0.0018 | 0.885 ± 0.022
10 | P15R | 0.06341 ± 0.00052 | 0.0876 ± 0.0021 | 1.04 ± 0.064
11 | D64C | 0.0848 ± 0.032 | 0.335 ± 0.072 | 2.45 ± 0.3
12 | D64P | 0.0607 ± 0.00078 | 0.076 ± 0.00078 | 0.162 ± 0.0067
13 | D64Y | 0.61 ± 0.017 | 1.75 ± 0.51 | 3.81 ± 0.17
14 | D64I | 0.256 ± 0.028 | 0.837 ± 0.025 | 3.78 ± 0.41
15 | C55M | 0.0645 ± 0.0015 | 0.0733 ± 0.0026 | 0.139 ± 0.018
16 | C114Q | 0.0568 ± 0.001 | 0.05864 ± 0.00052 | 0.0533 ± 0.0018
17 | C114P | 0.0552 ± 0.0013 | 0.0563 ± 0.0013 | 0.05204 ± 0.00052
18 | C114S | 0.05754 ± 0.00052 | 0.05809 ± 0.00026 | 0.0544 ± 0.0018
19 | R118A | 0.0676 ± 0.0018 | 0.0665 ± 0.00078 | 0.168 ± 0.026
20 | L28P | 0.06102 ± 0.00026 | 0.06047 ± 0.00052 | 0.0619 ± 0.001
21 | L28K | 0.06304 ± 0.00052 | 0.0625 ± 0.0018 | 0.05809 ± 0.00026
22 | L28C | 0.06304 ± 0.00052 | 0.06487 ± 0.00052 | 0.14 ± 0.0052
23 | K104W | 0.0574 ± 0.0096 | 0.0795 ± 0.013 | 0.607 ± 0.096

Row | Variant | sfGFP reporter fluorescence [1] | sfGFP reporter fluorescence ([2]; ligand: 1 µM Pb) | sfGFP reporter fluorescence ([2]; ligand: 30 µM Zn)
24 | V108N | 0.0574 ± 0.0013 | 0.06414 ± 0.00052 | 0.611 ± 0.073
25 | V108L | 0.0594 ± 0.001 | 0.0696 ± 0.0026 | 0.616 ± 0.035
26 | V108W | 0.0583 ± 0.001 | 0.072 ± 0.0029 | 0.554 ± 0.0067
27 | R56A | 0.0616 | 0.0616 ± 0.0026 | 0.1308 ± 0.00052
28 | R96A | 0.0564 | 0.07495 ± 0.00026 | 0.294 ± 0.0083
29 | L103A | 0.0629 ± 0.0013 | 0.06945 ± 0.00026 | 0.918 ± 0.037
30 | L129W | 0.0572 ± 0.0026 | 0.06047 ± 0.00052 | 0.05717 ± 0.00052
31 | L129Y | 0.057 ± 0.0018 | 0.05901 ± 0.00052 | 0.05626 ± 0.00026
32 | L129K | 0.0581 ± 0.00078 | 0.059 ± 0.0021 | 0.05662 ± 0.00026
33 | P143C | 0.0574 ± 0.0013 | 0.07678 ± 0.00026 | 0.495 ± 0.12
34 | P143D | 0.05754 ± 0.00052 | 0.0733 ± 0.0021 | 0.782 ± 0.024
35 | M60Q | 0.0603 ± 0.00078 | 0.0588 ± 0.0018 | 0.0614 ± 0.0013
36 | C132A | 0.0695 ± 0.0023 | 0.0832 ± 0.0073 | 1.63 ± 0.043
37 | M60L K104V L107C | 1.11 ± 0.099 | 3.04 ± 0.88 | 2.76 ± 0.63
38 | E109F | 0.0621 ± 0.0013 | 0.09126 ± 0.00052 | 1.32 ± 0.051
39 | E109Y | 0.06029 ± 0.00026 | 0.0832 ± 0.0031 | 1.46 ± 0.15
40 | P30C | 0.0599 ± 0.0023 | 0.0744 ± 0.0026 | 0.608 ± 0.025
41 | L58V | 0.0583 ± 0.001 | 0.0568 ± 0.0021 | 0.061 ± 0.0018
42 | L58M | 0.0583 | 0.0581 ± 0.00078 | 0.0748 ± 0.0015
43 | L58P | 0.0594 ± 0.0015 | 0.0601 ± 0.001 | 0.0605 ± 0.001
44 | L58R | 0.06139 ± 0.00026 | 0.0651 ± 0.0029 | 0.0662 ± 0.00078
45 | L58W | 0.0629 ± 0.0034 | 0.0685 ± 0.0026 | 0.076 ± 0.0023
46 | V46M | 0.0563 ± 0.0018 | 0.09 ± 0.0075 | 1 ± 0.1

Row | Variant | sfGFP reporter fluorescence [1] | sfGFP reporter fluorescence ([2]; ligand: 1 µM Pb) | sfGFP reporter fluorescence ([2]; ligand: 30 µM Zn)
47 | E7F | 0.0601 ± 0.0015 | 0.0636 ± 0.0013 | 0.133 ± 0.012
48 | E7L | 0.06175 ± 0.00026 | 0.0837 ± 0.0013 | 0.846 ± 0.052
49 | G128E | 0.0599 ± 0.00078 | 0.0713 ± 0.0013 | 0.535 ± 0.051
50 | G128P | 0.05498 ± 0.00052 | 0.0568 ± 0.001 | 0.0535 ± 0.001
51 | L85E | 0.0605 ± 0.0015 | 0.0586 ± 0.0021 | 0.05662 ± 0.00026
52 | L85G | 0.0544 ± 0.0023 | 0.0541 ± 0.0013 | 0.0603 ± 0.00078
53 | L85I | 0.0577 ± 0.00078 | 0.06853 ± 0.00052 | 0.6194 ± 0.0057
54 | I97A | 0.0663 ± 0.0021 | 0.133 ± 0.0015 | 1.138 ± 0.007
55 | I97V | 0.0563 ± 0.0023 | 0.0605 ± 0.0026 | 0.338 ± 0.015
56 | I97E | 0.0574 ± 0.0044 | 0.0618 ± 0.0018 | 0.386 ± 0.055
57 | I97D | 0.0596 ± 0.0044 | 0.0575 ± 0.001 | 0.193 ± 0.0054
58 | L107C G128M | 3.17 ± 0.33 | 3.98 ± 0.14 | 4.14 ± 0.45
59 | R91A | 0.0618 ± 0.00078 | 0.0724 ± 0.0029 | 0.6942 ± 0.0015
60 | L110S | 0.05626 ± 0.00026 | 0.05772 ± 0.00026 | 0.0614 ± 0.0018
61 | L110I | 0.05571 ± 0.00052 | 0.0579 ± 0.0015 | 0.542 ± 0.036
62 | D59A | 0.0693 ± 0.0036 | 0.0755 ± 0.001 | 0.291 ± 0.014
63 | R39Q | 0.0612 ± 0.001 | 0.0599 ± 0.0018 | 0.0583 ± 0.001
64 | S57A | 0.059 ± 0.0015 | 0.0575 ± 0.001 | 0.184 ± 0.011
65 | C123L | 0.05589 ± 0.00026 | 0.0566 ± 0.0018 | 0.0542 ± 0.0021
66 | C123I | 0.05479 ± 0.00026 | 0.0553 ± 0.001 | 0.0517 ± 0.0021
67 | C123H | 0.0588 ± 0.0018 | 0.05901 ± 0.00052 | 0.0561 ± 0.0021
68 | C123T | 0.0586 ± 0.0021 | 0.0572 ± 0.0015 | 0.0568 ± 0.0036
69 | G36H | 0.0627 ± 0.0015 | 0.0793 ± 0.0018 | 0.772 ± 0.059

Row | Variant | sfGFP reporter fluorescence [1] | sfGFP reporter fluorescence ([2]; ligand: 1 µM Pb) | sfGFP reporter fluorescence ([2]; ligand: 30 µM Zn)
70 | G36S | 0.0706 ± 0.00078 | 0.119 ± 0.021 | 2.69 ± 0.06
71 | G36I | 0.05589 ± 0.00026 | 0.0579 ± 0.0015 | 0.117 ± 0.0044
72 | N83E | 0.0612 ± 0.001 | 0.0612 ± 0.0015 | 0.141 ± 0.0023
73 | N83R | 0.0625 ± 0.00078 | 0.0775 ± 0.0065 | 0.0883 ± 0.0021
74 | Y22W | 0.0658 ± 0.0029 | 0.142 ± 0.00026 | 2.1 ± 0.13
75 | Y22N | 0.0619 ± 0.0031 | 0.0607 ± 0.0029 | 0.0614 ± 0.0023
76 | Y22C | 0.0614 ± 0.0044 | 0.0623 ± 0.00052 | 0.05919 ± 0.00026
77 | Y22F | 0.0629 ± 0.0029 | 0.0662 ± 0.00078 | 0.173 ± 0.0039
78 | D64K L107C G128I | 4.71 ± 0.58 | 4.78 ± 0.6 | 4.48 ± 0.43
79 | L27T | 0.0621 ± 0.0013 | 0.06029 ± 0.00026 | 0.0594 ± 0.0026
80 | L27F | 0.0673 ± 0.0023 | 0.104 ± 0.0029 | 0.493 ± 0.035
81 | I3Q | 0.0548 ± 0.0029 | 0.0671 ± 0.0026 | 0.336 ± 0.0075
82 | I3L | 0.0568 ± 0.0057 | 0.0722 ± 0.0042 | 0.821 ± 0.0098
83 | I3W | 0.05919 ± 0.00026 | 0.0766 ± 0.001 | 0.957 ± 0.056
84 | S115A | 0.0599 ± 0.00078 | 0.0663 ± 0.0047 | 0.478 ± 0.14
85 | I90R | 0.0658 ± 0.0049 | 0.125 | 0.97 ± 0.025
86 | I90L | 0.0559 ± 0.0029 | 0.0583 ± 0.0015 | 0.3539 ± 0.0034
87 | I90V | 0.059 ± 0.0036 | 0.064 ± 0.00078 | 0.583 ± 0.015
88 | G6L | 0.0607 ± 0.00078 | 0.06157 ± 0.00052 | 0.0682 ± 0.001
89 | G6W | 0.061 ± 0.0023 | 0.06011 ± 0.00052 | 0.06212 ± 0.00026
